B1: F11-7 (bispecific antibody)
heavy: not shown
light: DVVLTQSPLSLPVTLGQPASISCKSSQSLLHSNGKTYLNWLLQRPGQSPRRLIYLVSKLDSGVPDRFSGSGSGTDFTLKISRVEAEDVGVYYCAQGTHFPRTFGGGTKVEIKRTVAAPSVFIFPPSDEQLKSGTASVVCLLNNFYPREAKVQWKVDNALQSGNSQESVTEQDSKDSTYSLSSTLTLSKADYEKHKVYACEVTHQGLSSPVTKSFNRGEC
notes: formula 11
B2: F11-11 (bispecific antibody)
heavy: not shown
light: B1 light with N33S
notes: formula 11
B3: F11-8 (bispecific antibody)
heavy: not shown
light: B1 light with N33S
notes: formula 11
B4: F11-12 (bispecific antibody)
heavy: not shown
light: B1 light with N33T
notes: formula 11
B5: F11-9 (bispecific antibody)
heavy: not shown
light: B1 light with N33T
notes: formula 11
B6: F11-10 (bispecific antibody)
heavy: not shown
light: B1 light
notes: formula 11
B7: F11-13 (bispecific antibody)
heavy: not shown
light: DIQMTQSPSSVSASVGDRVTITCKASQNVGSNVAWYQQKPGKAPKALIYSASYRYSGVPSRFSGSGSGTDFTLTISSLQPEDFATYYCHQYNSYPPTFGQGTKLEIKRTVAAPSVFIFPPSDEQLKSGTASVVCLLNNFYPREAKVQWKVDNALQSGNSQESVTEQDSKDSTYSLSSTLTLSKADYEKHKVYACEVTHQGLSSPVTKSFNRGEC
notes: formula 11
B8: F11-15 (bispecific antibody)
heavy: not shown
light: B7 light with A43S, T85E
notes: formula 11
B9: F11-14 (bispecific antibody)
heavy: not shown
light: B7 light
notes: formula 11
B10: F4-9 (bispecific antibody)
heavy 1: not shown
light 1: not shown
heavy 2: EVKLVESGGGLVQPGDFLSLSCAASGFTFTDYYLSWVRQPPGKALEWLAFIRNRAKGYTTEYSASVKGRFTISRDNSQSILYLQMNVLRAEDSATYYCARMGGKGWHFDVWGTGTTVTVSSASTKGPSVFPLAPSSKSTSGGTAALGCLVKDYFPEPVTVSWNSGALTSGVHTFPAVLQSSGLYSLSSVVTVPSSSLGTQTYICNVNHKPSNTKVDKKVEPKSCDKTHTCPPCPAPEAAGGPSVFLFPPKPKDTLMISRTPEVTCVVVDVSHEDPEVKFNWYVDGVEVHNAKTKPREEQYNSTYRVVSVLTVLHQDWLNGKEYKCKVSNKALPAPIEKTISKAKGQPREPQVCTLPPSRDELTKNQVSLSCAVKGFYPSDIAVEWESNGQPENNYKTTPPVLDSDGSFFLVSKLTVDKSRWQQGNVFSCSVMHEALHNHYTQKSLSLSPGK
light 2: DVLMTQSPLSLPVSLGDQASISCRSSQSIVHSNGNTYLEWYLQKPGQSPKLLIYKVSNRFSGVPDRFFGSGSGTDFTLKINRVEAEDLGVYYCFQGSHVPFTFGGGTKLEIKRTVAAPSVFIFPPSDEQLKSGTASVVCLLNNFYPREAKVQWKVDNALQSGNSQESVTEQDSKDSTYSLSSTLTLSKADYEKHKVYACEVTHQGLSSPVTKSFNRGEC
notes: formula 4 with Chi-45 variable regions
B11: F11-2 (bispecific antibody)
heavy: not shown
light: DVVMTQTPLSLSVTPGQPASISCRSSQSLVHSSGNTYLYWYLQKPGQSPKLLIYKVSNRFSGVPDRFSGSGSGTDFTLKISRVEAEDVGVYYCSQSTHVPPLTFGQGTKLEIKRTVAAPSVFIFPPSDEQLKSGTASVVCLLNNFYPREAKVQWKVDNALQSGNSQESVTEQDSKDSTYSLSSTLTLSKADYEKHKVYACEVTHQGLSSPVTKSFNRGEC
notes: formula 11
B12: F11-1 (bispecific antibody)
heavy: not shown
light: B11 light with V2I, S33N, K50Q
notes: formula 11, GPRC5D x CD3 (S107E scFv)
B13: F11-3 (bispecific antibody)
heavy: not shown
light: B11 light with S33Q
notes: formula 11
B14: F11-6 (bispecific antibody)
heavy: not shown
light: B11 light with S33Q
notes: formula 11
B15: F11-4 (bispecific antibody)
heavy: not shown
light: B11 light with V2I, S33N, K50Q
notes: formula 11
B16: F11-5 (bispecific antibody)
heavy: not shown
light: B11 light
notes: formula 11
B17: F2-4 (bispecific antibody)
heavy 1: not shown
light 1: B10 light 2 with L3V, S14T, L15P, D17E, Q18P, G34R, L88V, L109V
heavy 2: not shown
light 2: not shown
notes: formula 2

The results in this text go back to patent US20250215083A1 (JIANGSU HENGRUI PHARMACEUTICALS, published 2025).

Residue numbers refer to the chain shown, from its start. In names and notes the source's numbering stands.

T1 sequence (Q9NZD1 whole entry): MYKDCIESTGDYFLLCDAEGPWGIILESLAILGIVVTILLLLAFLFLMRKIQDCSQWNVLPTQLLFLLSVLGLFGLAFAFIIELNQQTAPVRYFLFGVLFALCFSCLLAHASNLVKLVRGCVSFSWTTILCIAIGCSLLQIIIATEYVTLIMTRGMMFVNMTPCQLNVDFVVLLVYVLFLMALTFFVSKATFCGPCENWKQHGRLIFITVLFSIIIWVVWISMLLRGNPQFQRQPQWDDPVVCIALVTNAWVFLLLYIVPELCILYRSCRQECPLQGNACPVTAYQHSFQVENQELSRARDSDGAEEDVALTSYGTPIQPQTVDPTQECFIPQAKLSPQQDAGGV

The first assay has as its target T1, human GPRC5D (human, UniProt Q9NZD1 1-345).
T1 construct: whole, on cells; also called membrane surface GPRC5D
The assay is described as follows: FACS, MM.1R cells. The method, then:
(§1) To test the capacity of the GPRC5D/CD3 bispecific antibodies of the present disclosure to bind to GPRC5D, a flow cytometry assay was used in this test example to measure the capacity of the GPRC5D/CD3 bispecific antibodies to bind to the human multiple myeloma cell line MM.1R (ATCC® CRL-2975), which expresses GPRC5D, and to a stably transfected cell strain CHOK1-cynoGPRC5D, which expresses cynomolgus monkey GPRC5D. The specific procedure was as follows: The cells described above were cultured in complete culture medium containing 10% FBS, incubated in a 37° C., 5% CO₂ incubator for 2 days, and added to a cell plate at 1×10⁵ cells/well. The plate was centrifuged at 300 g for 5 min and washed once with 1% BSA. The antibodies were serially diluted to 8 concentrations and added to the cell plate at 100 μL/well. The plate was incubated at 4° C. for 1 h and washed once with 1% BSA. […] The plate was washed three times with 1% BSA, PBS was added at 100 μL/well, and plate reading was performed.
The term EC50 denotes the midpoint of the concentration-response curve. In turn, B1 had an EC50 of 1.89 nM and a Max of 2020.

In the case of B2, a half-maximal response (EC50) required 1.7 nM and the Max was determined as 1560.

In the case of B3, it took 2 nM to reach a half-maximal effect (EC50) and the Max turned out to be 1910.

Molecule B4 yielded an EC50 of 1.93 nM and a Max of 1600.

In the case of B5, the EC50 is 2.16 nM and the Max turned out to be 1950.

As to B6, it took 1.29 nM to reach a half-maximal effect (EC50) and the Max is 1470.

In turn, B7 registered an EC50 of 1.05 nM and a Max of 718.

On to B8, for which the EC50 was found to be 0.89 nM and the Max worked out at 693.

Turning to B9, the EC50 stood at 0.88 nM and the Max came to 633.

In turn, B10 displayed an EC50 of 19.2 nM and a Max of 13200.

As to B11, a half-maximal response (EC50) required 0.35 nM and the Max worked out at 1.63.

For B12, the midpoint of the response, the EC50, lay at 0.44 nM and the Max came out at 1.76.

B13 returned an EC50 of 0.3 nM and a Max of 1.8.

B14 had an EC50 of 0.23 nM and a Max of 1.6.

With B15, the EC50 turned out to be 0.39 nM and the Max was 1.66.

Consider B16, for which the response was half-maximal at 0.34 nM (EC50) and the Max was 1.6.

A further assay concerns the target T1, human GPRC5D. In words: FACS, MM.1R cells. The source holds these as a separate data set. On the procedure:
as §1
Turning to B1, the EC50 turned out to be 1.89 nM.

For the molecule B2, the EC50 was 1.7 nM.

The molecule B3 gave an EC50 of 2 nM.

Consider B4, for which the EC50 was found to be 1.93 nM.

With B5, it took 2.16 nM to reach a half-maximal effect (EC50).

As to B6, a half-maximal effect (EC50) was put at 1.29 nM.

The molecule B7 registered an EC50 of 1.05 nM.

Consider B8, for which the EC50 stood at 0.89 nM.

B9 showed an EC50 of 0.88 nM.

In the case of B17, the EC50 is 7.56 nM.

In turn, B11 gave an EC50 of 0.35 nM.

In the case of B12, the EC50 was 0.44 nM.

B13 showed an EC50 of 0.3 nM.

B14: the EC50 came out at 0.23 nM.

In turn, B15 yielded an EC50 of 0.39 nM.

In turn, B16 displayed an EC50 of 0.34 nM.

In the next assay the target is T2, cynomolgus monkey GPRC5D (cynomolgus monkey).
T2 construct: whole, on cells; also called CynoGPRC5D; cynoGPRC5D
The assay is described as follows: FACS, CHOK1-cynoGPRC5D cells. The method, then: as §1
(In general: Flow cytometry measures light scatter and fluorescence of single cells or particles in a stream.)
In turn, B7 displayed an EC50 of 2.21 nM and a Max of 28100.

B8 yielded an EC50 of 1.45 nM and a Max of 24000.

B9 returned an EC50 of 1.86 nM and a Max of 25800.

Regarding B10, the half-maximal effective concentration (EC50) came out at 4.01 nM and the Max was determined as 83700.

B11 displayed an EC50 of 0.47 nM and a Max of 1.09.

Regarding B12, the EC50 came out at 0.36 nM and the Max came out at 1.31.

Consider B13, for which the EC50 stood at 0.27 nM and the Max worked out at 1.45.

B14 had an EC50 of 0.32 nM and a Max of 1.35.

In the case of B15, the EC50 amounted to 0.28 nM and the Max stood at 1.27.

In the case of B16, it took 0.41 nM to reach a half-maximal effect (EC50) and the Max turned out to be 1.12.

Another assay concerns the target T2, cynomolgus monkey GPRC5D. In words: FACS, CHOK1-cynoGPRC5D cells. This is another data set of the same source. The method, then:
as §1
B1: the EC50 is 0.76 nM.

B2 registered an EC50 of 1.01 nM.

The molecule B3 had an EC50 of 0.36 nM.

As for B4, the EC50 was 1.6 nM.

As for B5, the EC50 is 0.17 nM.

B6 came in with an EC50 of 0.4 nM.

Molecule B7 yielded an EC50 of 2.21 nM.

B8 came in with an EC50 of 1.45 nM.

Regarding B9, a half-maximal effect (EC50) was put at 1.86 nM.

B17 gave an EC50 of 3.95 nM.

For the molecule B11, the midpoint of the response, the EC50, lay at 0.47 nM.

B12 returned an EC50 of 0.36 nM.

As for B13, the response was half-maximal at 0.27 nM (EC50).

In turn, B14 registered an EC50 of 0.32 nM.

As for B15, the EC50 turned out to be 0.28 nM.

Molecule B16 returned an EC50 of 0.42 nM.
